# Reference: patent publication US20250186594A1 (BRIGHT PEAK THERAPEUTICS, published 2025)
# Target: T1, IL-18 receptor (IL-18R) on HEK-Blue IL18R reporter cells (UniProt Q13478 19-541; O95256 20-599, limits assumed)
# T1 sequence (looked up) 1: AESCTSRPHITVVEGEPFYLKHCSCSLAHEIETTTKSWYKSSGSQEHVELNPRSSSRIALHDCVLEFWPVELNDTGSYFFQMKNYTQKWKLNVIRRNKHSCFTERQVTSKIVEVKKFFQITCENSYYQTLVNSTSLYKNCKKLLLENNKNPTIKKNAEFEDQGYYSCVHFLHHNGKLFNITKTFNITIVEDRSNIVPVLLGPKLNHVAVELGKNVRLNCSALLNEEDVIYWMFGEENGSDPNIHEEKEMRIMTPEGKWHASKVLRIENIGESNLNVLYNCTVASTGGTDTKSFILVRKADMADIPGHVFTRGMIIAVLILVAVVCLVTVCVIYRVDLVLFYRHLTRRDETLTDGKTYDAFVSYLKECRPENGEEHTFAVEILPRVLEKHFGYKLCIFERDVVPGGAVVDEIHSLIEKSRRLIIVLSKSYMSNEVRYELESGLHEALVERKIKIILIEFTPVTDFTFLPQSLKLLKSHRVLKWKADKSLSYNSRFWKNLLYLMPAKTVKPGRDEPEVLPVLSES
# T1 sequence (looked up) 2: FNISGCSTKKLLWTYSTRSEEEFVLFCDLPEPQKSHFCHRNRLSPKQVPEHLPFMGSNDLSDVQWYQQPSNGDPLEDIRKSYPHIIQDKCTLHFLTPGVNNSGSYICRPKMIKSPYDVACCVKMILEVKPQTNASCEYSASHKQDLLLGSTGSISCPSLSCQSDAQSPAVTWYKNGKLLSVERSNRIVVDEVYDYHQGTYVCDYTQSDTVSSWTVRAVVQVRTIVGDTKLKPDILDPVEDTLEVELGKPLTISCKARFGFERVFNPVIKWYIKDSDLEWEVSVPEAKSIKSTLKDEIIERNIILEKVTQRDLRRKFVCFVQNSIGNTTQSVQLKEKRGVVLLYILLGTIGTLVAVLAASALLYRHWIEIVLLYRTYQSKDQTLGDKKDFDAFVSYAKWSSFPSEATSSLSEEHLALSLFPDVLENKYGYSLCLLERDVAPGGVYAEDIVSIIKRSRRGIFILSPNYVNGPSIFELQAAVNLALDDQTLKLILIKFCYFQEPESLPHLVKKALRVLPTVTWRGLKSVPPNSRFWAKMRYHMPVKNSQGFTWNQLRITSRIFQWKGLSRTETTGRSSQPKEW
# Experiment: cell-based or functional assay
row,Binder,"EC50, HEK-Blue IL18R reporter [nM]"
1,"IL-18 variant SEQ ID NO: 240 (E6R, V11I, C38A, K53A, T63A, C76A, C127A) (ligand) YFGKLRSKLSIIRNLNDQVLFIDQGNRPLFEDMTDSDARDNAPRTIFIISMYADSQPRGMAVAISVKCEKISTLSAENKIISFKEMNPPDNIKDTKSDIIFFQRSVPGHDNKMQFESSSYEGYFLAAEKERDLFKLILKKEDELGDRSIMFTVQNED",0.04
2,"IL-18 variant SEQ ID NO: 205 (V11I, C38A, K53A, T63A, C76A, C127A) (ligand) YFGKLESKLSIIRNLNDQVLFIDQGNRPLFEDMTDSDARDNAPRTIFIISMYADSQPRGMAVAISVKCEKISTLSAENKIISFKEMNPPDNIKDTKSDIIFFQRSVPGHDNKMQFESSSYEGYFLAAEKERDLFKLILKKEDELGDRSIMFTVQNED",0.17
3,"IL-18 variant SEQ ID NO: 210 (V11I, E31A, C38A, K53A, C76A, C127A) (ligand) YFGKLESKLSIIRNLNDQVLFIDQGNRPLFADMTDSDARDNAPRTIFIISMYADSQPRGMAVTISVKCEKISTLSAENKIISFKEMNPPDNIKDTKSDIIFFQRSVPGHDNKMQFESSSYEGYFLAAEKERDLFKLILKKEDELGDRSIMFTVQNED",6.6
4,"IL-18 variant SEQ ID NO: 216 (V11I, C38A, D40A, K53A, C76A, C127A) (ligand) YFGKLESKLSIIRNLNDQVLFIDQGNRPLFEDMTDSDARANAPRTIFIISMYADSQPRGMAVTISVKCEKISTLSAENKIISFKEMNPPDNIKDTKSDIIFFQRSVPGHDNKMQFESSSYEGYFLAAEKERDLFKLILKKEDELGDRSIMFTVQNED",0.52
5,"IL-18 variant SEQ ID NO: 209 (F2A, V11I, C38A, K53A, C76A, C127A) (ligand) YAGKLESKLSIIRNLNDQVLFIDQGNRPLFEDMTDSDARDNAPRTIFIISMYADSQPRGMAVTISVKCEKISTLSAENKIISFKEMNPPDNIKDTKSDIIFFQRSVPGHDNKMQFESSSYEGYFLAAEKERDLFKLILKKEDELGDRSIMFTVQNED",7.28
6,"IL-18 variant SEQ ID NO: 213 (V11I, S36A, C38A, K53A, C76A, C127A) (ligand) YFGKLESKLSIIRNLNDQVLFIDQGNRPLFEDMTDADARDNAPRTIFIISMYADSQPRGMAVTISVKCEKISTLSAENKIISFKEMNPPDNIKDTKSDIIFFQRSVPGHDNKMQFESSSYEGYFLAAEKERDLFKLILKKEDELGDRSIMFTVQNED",0.25
7,"IL-18 variant SEQ ID NO: 206 (V11I, C38A, K53A, S55A, C76A, C127A) (ligand) YFGKLESKLSIIRNLNDQVLFIDQGNRPLFEDMTDSDARDNAPRTIFIISMYADAQPRGMAVTISVKCEKISTLSAENKIISFKEMNPPDNIKDTKSDIIFFQRSVPGHDNKMQFESSSYEGYFLAAEKERDLFKLILKKEDELGDRSIMFTVQNED",3.63
8,"IL-18 variant SEQ ID NO: 208 (V11I, C38A, K53A, D54A, C76A, C127A) (ligand) YFGKLESKLSIIRNLNDQVLFIDQGNRPLFEDMTDSDARDNAPRTIFIISMYAASQPRGMAVTISVKCEKISTLSAENKIISFKEMNPPDNIKDTKSDIIFFQRSVPGHDNKMQFESSSYEGYFLAAEKERDLFKLILKKEDELGDRSIMFTVQNED",1
9,"IL-18 variant SEQ ID NO: 215 (V11I, E31A, D37A, C38A, K53A, C76A, C127A) (ligand) YFGKLESKLSIIRNLNDQVLFIDQGNRPLFADMTDSAARDNAPRTIFIISMYADSQPRGMAVTISVKCEKISTLSAENKIISFKEMNPPDNIKDTKSDIIFFQRSVPGHDNKMQFESSSYEGYFLAAEKERDLFKLILKKEDELGDRSIMFTVQNED",11.9
10,"IL-18 variant SEQ ID NO: 214 (V11I, D37A, C38A, K53A, C76A, C127A) (ligand) YFGKLESKLSIIRNLNDQVLFIDQGNRPLFEDMTDSAARDNAPRTIFIISMYADSQPRGMAVTISVKCEKISTLSAENKIISFKEMNPPDNIKDTKSDIIFFQRSVPGHDNKMQFESSSYEGYFLAAEKERDLFKLILKKEDELGDRSIMFTVQNED",14.1
11,"IL-18 variant SEQ ID NO: 243 (Y1M, E6K, V11I, C38A, K53A, T63A, C76A, C127A) (ligand) MFGKLKSKLSIIRNLNDQVLFIDQGNRPLFEDMTDSDARDNAPRTIFIISMYADSQPRGMAVAISVKCEKISTLSAENKIISFKEMNPPDNIKDTKSDIIFFQRSVPGHDNKMQFESSSYEGYFLAAEKERDLFKLILKKEDELGDRSIMFTVQNED",0.02
12,"IL-18 variant SEQ ID NO: 211 (V11I, T34A, C38A, K53A, C76A, C127A) (ligand) YFGKLESKLSIIRNLNDQVLFIDQGNRPLFEDMADSDARDNAPRTIFIISMYADSQPRGMAVTISVKCEKISTLSAENKIISFKEMNPPDNIKDTKSDIIFFQRSVPGHDNKMQFESSSYEGYFLAAEKERDLFKLILKKEDELGDRSIMFTVQNED",0.7
13,"IL-18 variant SEQ ID NO: 217 (V11I, C38A, N41A, K53A, C76A, C127A) (ligand) YFGKLESKLSIIRNLNDQVLFIDQGNRPLFEDMTDSDARDAAPRTIFIISMYADSQPRGMAVTISVKCEKISTLSAENKIISFKEMNPPDNIKDTKSDIIFFQRSVPGHDNKMQFESSSYEGYFLAAEKERDLFKLILKKEDELGDRSIMFTVQNED",11.7
14,"IL-18 variant SEQ ID NO: 204 (V11I, C38A, K53A, C76A, C127A) (ligand) YFGKLESKLSIIRNLNDQVLFIDQGNRPLFEDMTDSDARDNAPRTIFIISMYADSQPRGMAVTISVKCEKISTLSAENKIISFKEMNPPDNIKDTKSDIIFFQRSVPGHDNKMQFESSSYEGYFLAAEKERDLFKLILKKEDELGDRSIMFTVQNED",0.98
15,"IL-18 variant SEQ ID NO: 212 (V11I, D35A, C38A, K53A, C76A, C127A) (ligand) YFGKLESKLSIIRNLNDQVLFIDQGNRPLFEDMTASDARDNAPRTIFIISMYADSQPRGMAVTISVKCEKISTLSAENKIISFKEMNPPDNIKDTKSDIIFFQRSVPGHDNKMQFESSSYEGYFLAAEKERDLFKLILKKEDELGDRSIMFTVQNED",13.1

# Target: T2, IL-18Rα/β heterodimer (Fc fused human IL-18Rα mixed with Fc fused human IL-18Rβ) (human, UniProt Q13478 19-329; O95256 20-356, limits assumed)
# T2 construct: Alpha and beta Fc fusions were mixed and pre-incubated for 30 min before capture on anti-human IgG; also called alpha/beta heterodimer IL-18 receptor; heterodimeric human IL-18 receptor alpha (CD218a) and IL-18R accessory protein (IL-18RAP/CDw218b); not shown: Fc
# T2 sequence (looked up) 1: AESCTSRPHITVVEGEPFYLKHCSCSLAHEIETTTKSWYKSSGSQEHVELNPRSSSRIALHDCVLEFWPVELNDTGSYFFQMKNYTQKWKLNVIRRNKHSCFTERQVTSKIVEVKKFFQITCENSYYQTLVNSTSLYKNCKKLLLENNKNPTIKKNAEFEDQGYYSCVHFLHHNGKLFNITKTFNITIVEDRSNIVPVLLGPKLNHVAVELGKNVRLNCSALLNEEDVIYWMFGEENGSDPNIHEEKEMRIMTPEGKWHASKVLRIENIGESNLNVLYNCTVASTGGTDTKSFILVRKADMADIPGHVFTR
# T2 sequence (looked up) 2: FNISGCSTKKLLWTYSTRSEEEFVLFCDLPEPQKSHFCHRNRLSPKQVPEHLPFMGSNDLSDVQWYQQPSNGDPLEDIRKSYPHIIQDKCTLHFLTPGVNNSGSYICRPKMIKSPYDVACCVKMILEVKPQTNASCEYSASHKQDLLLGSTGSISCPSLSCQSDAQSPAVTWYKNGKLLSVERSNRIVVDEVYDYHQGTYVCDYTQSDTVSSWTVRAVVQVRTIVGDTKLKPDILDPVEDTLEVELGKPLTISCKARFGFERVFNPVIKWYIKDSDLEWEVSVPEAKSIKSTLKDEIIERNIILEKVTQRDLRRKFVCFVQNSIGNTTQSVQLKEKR
# Experiment: SPR, Fc-IL-18Rα/β captured, heterogeneous ligand fit
# Procedure: The interaction of the wild type and of modified IL-18 polypeptides with human IL-18 receptor subunits are measured with Surface Plasmon Resonance (SPR) technology. Anti-human IgG antibodies are bound by amine coupling onto a CM5 chip to capture 6 µg/mL of Fc fused human IL-18Rα, […] of Fc fused human IL-18Rβ, or […] of Fc fused human IL-18BP isoform a (IL-18BPa) for 30 min before capture. In other settings, […] of alpha and beta IL-18 receptors are mixed and pre-incubated for 30 min before capture of the alpha/beta heterodimer IL-18 receptor.
# The kinetic binding of the IL-18 analytes are measured with a Biacore 8K instrument in two fold serial dilutions starting at […] down to 0.98 nM. Regeneration of the surface back to amine coupled anti IgG antibody is done after every concentration of analyte. To measure the protein association to the receptors, the samples are injected with a flow rate of […] for 60 s, followed by 300 s buffer only to detect the dissociation. The used running buffer is 1×PBS with 0.05% Tween20. The relative response units (RU, Y-axis) are plotted against time (s, X-axis) and analyzed in a kinetic 1:1 binding model for the monomer receptor binding and for the binding to the IL-18BP. A kinetic heterogenous ligand fit model is applied for the alpha/beta heterodimer binding.
Binder,Kd [nM],koff [s⁻¹],kon [M⁻¹ s⁻¹]
"IL-18 variant SEQ ID NO: 62 with 30 kDa PEG (E6K, C38A, K53A, C127A, C68-30kPEG) (ligand, 30 kDa PEG on Cys 68 (C68-30kPEG), also called 62 + PEG) YFGKLKSKLSVIRNLNDQVLFIDQGNRPLFEDMTDSDARDNAPRTIFIISMYADSQPRGMAVTISVKCEKISTLSCENKIISFKEMNPPDNIKDTKSDIIFFQRSVPGHDNKMQFESSSYEGYFLAAEKERDLFKLILKKEDELGDRSIMFTVQNED",14.9,0.000779,52300
